From patent US20240417482A1 (CONCEPT TO MEDICINE BIOTECH, published 2024)
Substitutions are numbered along the chain they refer to. Like-named read-outs stand apart in the source and are kept apart here.

T1: mouse 4-1BB-His protein (mouse, UniProt P20334 24-187)
T1 construct: Recombinant His-tagged protein; also called mouse 4-1BB antigen; not shown: His tag
T1 sequence (looked up): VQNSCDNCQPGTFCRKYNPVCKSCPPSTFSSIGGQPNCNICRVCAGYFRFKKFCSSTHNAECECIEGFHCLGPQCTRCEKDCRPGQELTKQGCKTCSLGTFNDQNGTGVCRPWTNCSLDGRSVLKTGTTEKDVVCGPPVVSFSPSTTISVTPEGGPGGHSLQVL

T2: human OX40 protein (human, UniProt P43489 29-214, limits assumed)
T2 construct: Coated protein in ELISA
T2 sequence (looked up): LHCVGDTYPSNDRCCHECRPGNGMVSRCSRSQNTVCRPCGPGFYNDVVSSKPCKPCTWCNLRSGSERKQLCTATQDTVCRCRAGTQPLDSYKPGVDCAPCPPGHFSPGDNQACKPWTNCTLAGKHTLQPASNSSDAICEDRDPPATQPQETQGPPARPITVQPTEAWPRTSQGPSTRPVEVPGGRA

T3: cynomolgus 4-1BB-His protein (cynomolgus, UniProt A9YYE7 24-186)
T3 construct: Recombinant His-tagged protein; also called cyno 4-1BB antigen; not shown: His tag
T3 sequence: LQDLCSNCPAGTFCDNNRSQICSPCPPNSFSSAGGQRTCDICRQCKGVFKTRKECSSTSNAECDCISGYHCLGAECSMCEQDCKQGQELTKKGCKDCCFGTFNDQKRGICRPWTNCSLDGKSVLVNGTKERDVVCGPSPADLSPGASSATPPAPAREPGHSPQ

B1: B31-V3 humanized antibody (VHH)
VHH: QVQLVESGGGLVQPGGSLRLSCAASGDIFSIMFWYRQAPGKQREYVAHITSNGRTNYADSVTGRFTISRDNNKNTLYLQMNSLRAEDTAVYYCAADDATNTRTYWGQGTLVTVSS
notes: Humanized VHH captured on a Protein A chip; also called B31 VHH-V3
B2: B31 chimeric mAb (VHH)
VHH: QVQLVESGGGLVQAGGSLRLSCAASGDIFSIMFWYRQPQGKQREYVAHITSNGRTNYADSVTGRFTISRGNNDNTMYLQMDNLKPQDTAVYYCAADDATNTRTYWGQGTQVTVSS
notes: Alpaca VHH tested as 'chimeric mAb' expressed in 293F cells, purified by protein G, detected with anti-human IgG and captured on Protein A; also called B31 chimeric antibody
B3: B31-V6 humanized antibody (VHH)
VHH: B1 VHH with A23S, N72S, A95R
notes: Humanized VHH captured on a Protein A chip; also called B31 VHH-V6
B4: B31-V5 humanized antibody (VHH)
VHH: B1 VHH with A38P, P39Q, N81D
notes: Humanized VHH captured on a Protein A chip; also called B31 VHH-V5
B5: B31-V2 humanized antibody (VHH)
VHH: B1 VHH with A23S, A47S, N72S
notes: Humanized VHH expressed in 293F cells and captured on a Protein A chip; also called B31 VHH-V2
B6: B31-V4 humanized antibody (VHH)
VHH: B1 VHH with N72S, L76M, N81D
notes: Humanized VHH captured on a Protein A chip; also called B31 VHH-V4
B7: B16-V2 humanized antibody (VHH)
VHH: EVQLVESGGGLVQPGGSLRLSCAASGFTFSYYAIGWFRQAPGKEREGVSCISSSDGSTYYADSVKGRFTISRDNSKNTLYLQMNSLRAEDTAVYYCATDTTTRCPIWSYYVESDYWGQGTLVTVSS
notes: Humanized VHH; also called B16 VHH-V2
B8: B16 chimeric mAb (VHH)
VHH: B7 VHH with E1Q, F29L, S30D, S75A, L79V, R87K, A88P, L121Q
notes: Alpaca VHH tested as 'chimeric mAb'
B9: B210-V2 humanized antibody (VHH)
VHH: B7 VHH with D55G, G56R, Y59N, Y109N
notes: Humanized VHH; also called B210 VHH-V2
B10: B125-V2 humanized antibody (VHH)
VHH: B7 VHH with T28A, Y31D
notes: Humanized VHH; also called B125 VHH-V2
B11: B210 chimeric mAb (VHH)
VHH: EVQLVESGGGLVQPGGSLRLSCAASGLSLDYYAIGWFRQAPGKEREGVSCISSSGRSTNYADSVKGRFTISRDNAKNTVYLQMNSLKPEDTADYYCATDTTTRCPIWSNYVESDYWGQGTQVTVSS
notes: as for B8
B12: B125 chimeric mAb (VHH)
VHH: B7 VHH with E1Q, T28A, Y31D, S75A, L79V, R87K, A88P, L121Q
notes: as for B8
B13: B210-V3 humanized antibody (VHH)
VHH: B7 VHH with F27L, D55G, G56R, Y59N, Y109N
notes: Humanized VHH; also called B210 VHH-V3
B14: B164 chimeric mAb (VHH)
VHH: EVQLVESGGGLVQAGGSLRLSCAASGSIFSYMFWYRQPQGKQREYVAHITSGGRTNYADSVTGRFTISRGNNDNTMYLQMNNLKPEDTAVYYCAADDAVYTDRTYWGQGTQVTVSS
notes: as for B8

Experiments:
[1] = biological target: human 4-1BB expressed on cells (human) (UniProt Q07011); assay: flow cytometry on HEK293-4-1BB cells, PE anti-human IgG, MFI
human 4-1BB-His protein [2] = biological target: T4, human 4-1BB-His protein (human, UniProt Q07011 24-186); assay: ELISA, plate coated with human 4-1BB-His at 0.5 ug/ml, anti-human IgG-HRP detection, OD450 (panel Human 4-1BB ELISA)
T4 construct: Recombinant His-tagged protein; also called human 4-1BB-his tag; recombinant 4-1BB protein; not shown: His tag
Target sequence in this assay (Q07011 24-186 limits assumed): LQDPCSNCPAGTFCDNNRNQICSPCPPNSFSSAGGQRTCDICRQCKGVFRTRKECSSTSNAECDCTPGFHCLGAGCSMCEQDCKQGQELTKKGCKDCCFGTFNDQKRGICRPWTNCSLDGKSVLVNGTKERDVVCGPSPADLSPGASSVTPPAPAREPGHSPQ

human 4-1BB-His protein [3] = biological target: T4, human 4-1BB-His protein; assay: SPR, Biacore T200, antibody captured on Protein A chip, human 4-1BB-His as analyte
Experimental: The binding of the humanized antibodies to recombinant human 4-1BB protein (human 4-1BB-his tag) was tested by Biacore using a capture method. […] A serial dilution of human 4-1BB-his tag protein was injected over captured antibody for 30 s at a flow rate of 10 μl/min. The antigen was allowed to dissociate for 360 s. All the experiments were carried out on a Biacore T200.

human 4-1BB-His protein [4] = biological target: T4, human 4-1BB-His protein; assay: ELISA, plate coated with human 4-1BB-His, anti-human IgG-HRP
Experimental: Briefly, microtiter plates were coated with human 4-1BB-His protein at 0.5 μg/ml in PBS, 100 μl/well at 4° C. overnight, then blocked with 150 μl/well of 1% BSA. […] The plates were washed with PBS/Tween and then incubated with Anti-Human IgG (H&L) (GOAT) Antibody Peroxidase Conjugated for 30 mins at 37° C. After washing, the plates were developed with TMB substrate and analyzed by spectrophotometer at OD 450 nm.

mouse 4-1BB-His protein [5] = biological target: T1, mouse 4-1BB-His protein; assay: ELISA, plate coated with mouse 4-1BB-His 0.5 µg/ml
Experimental: (§1) Microtiter plates were coated with mouse 4-1BB-His protein at 0.5 μg/ml in PBS, 100 μl/well at 4° C. overnight, then blocked with 150 μl/well of 1% BSA. […] The plates were washed with PBS/Tween and then incubated with Anti-Human IgG (H&L) (GOAT) Antibody Peroxidase Conjugated for 30 mins at 37° C. After washing, the plates were developed with TMB substrate and analyzed by spectrophotometer at OD 450 nm.

human OX40 protein = biological target: T2, human OX40 protein; assay: ELISA, plate coated with human OX40 0.5 µg/ml
Experimental: (§2) Briefly, microtiter plates were coated with human CD40 protein or human OX40 protein at 0.5 μg/ml in PBS, 100 μl/well at 4° C. overnight, then blocked with 150 μl/well of 1% BSA. […] The plates were washed with PBS/Tween and then incubated with Anti-Human IgG (H&L) (GOAT) Antibody Peroxidase Conjugated for 30 mins at 37° C. After washing, the plates were developed with TMB substrate and analyzed by spectrophotometer at OD 450 nm.

human CD40 protein = biological target: T5, human CD40 protein (human, UniProt P25942 21-193); assay: ELISA, plate coated with human CD40 0.5 µg/ml
T5 construct: Coated protein in ELISA
Experimental: as §2

[6] = biological target: T3, cynomolgus 4-1BB-His protein; assay: ELISA, plate coated with cynomolgus 4-1BB-His, anti-human IgG-HRP
Experimental: Microtiter plates were coated with cynomolgus 4-1BB-His protein at 0.5 μg/ml in PBS, 100 μl/well at 4° C. overnight, then blocked with 150 μl/well of 1% BSA. […] The plates were washed with PBS/Tween and then incubated with Anti-Human IgG (H&L) (GOAT) Antibody Peroxidase Conjugated for 30 mins at 37° C. After washing, the plates were developed with TMB substrate and analyzed by spectrophotometer at OD 450 nm.

human 4-1BB-His protein [7] = biological target: T4, human 4-1BB-His protein; assay: SPR, Biacore T200, antibody captured on Protein A chip, human 4-1BB-His as analyte; remark: listed apart in the source
Experimental: A serial dilution of human 4-1BB-his tag protein was injected over captured antibody for 30 s at a flow rate of 30 μl/min. The antigen was allowed to dissociate for 360 s. All the experiments were carried out on a Biacore T200. Data analysis was carried out using the Biacore T200 evaluation software.

mouse 4-1BB-His protein [8] = biological target: T1, mouse 4-1BB-His protein; assay: ELISA, plate coated with mouse 4-1BB-His, anti-human IgG-HRP
Experimental: as §1

T5 sequence (P25942 21-193 limits assumed): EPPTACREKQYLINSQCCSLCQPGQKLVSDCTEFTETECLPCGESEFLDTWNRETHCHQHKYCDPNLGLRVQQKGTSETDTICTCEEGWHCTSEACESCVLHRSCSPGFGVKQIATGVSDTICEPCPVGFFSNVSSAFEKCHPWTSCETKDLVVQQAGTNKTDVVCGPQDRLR
human 4-1BB expressed on cells (human), sequence (Q07011 24-255): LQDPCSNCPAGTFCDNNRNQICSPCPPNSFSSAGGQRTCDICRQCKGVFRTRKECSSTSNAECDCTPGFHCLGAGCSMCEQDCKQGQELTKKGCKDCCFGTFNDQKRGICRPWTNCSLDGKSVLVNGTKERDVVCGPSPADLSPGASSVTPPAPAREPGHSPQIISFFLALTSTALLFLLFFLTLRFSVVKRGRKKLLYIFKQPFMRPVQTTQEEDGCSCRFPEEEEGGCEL

Row | Molecule | Kd (human 4-1BB-His protein [3]) | koff (human 4-1BB-His protein [3]) | kon (human 4-1BB-His protein [3]) | EC50 (human 4-1BB-His protein [4]) | binding result (human OX40 protein) | binding result (human CD40 protein) | EC50 [6] | Kd (human 4-1BB-His protein [7]) | koff (human 4-1BB-His protein [7]) | kon (human 4-1BB-His protein [7]) | also measured
1 | Urelumab (antibody) | – | – | – | – | – | – | – | – | – | – | EC50 (read off the curve) [1]: 0.002 µM; EC50 (read off the curve) (human 4-1BB-His protein [2]): 10 ng/mL
2 | B1 | 0.0136 µM | 0.00716 s⁻¹ | 526000 M⁻¹ s⁻¹ | – | – | – | – | – | – | – | –
3 | B2 | – | – | – | 2.42 ng/mL | no binding | no binding | 4.06 ng/mL | 0.00316 µM | 0.0048 s⁻¹ | 1.52e+06 M⁻¹ s⁻¹ | binding result (mouse 4-1BB-His protein [5]): no binding; EC50 (read off the curve) [1]: 0.003 µM
4 | B3 | 0.00658 µM | 0.00156 s⁻¹ | 237000 M⁻¹ s⁻¹ | – | – | – | – | – | – | – | –
5 | B4 | 0.00497 µM | 0.00646 s⁻¹ | 1.3e+06 M⁻¹ s⁻¹ | – | – | – | – | – | – | – | –
6 | B5 | 0.0131 µM | 0.0068 s⁻¹ | 517000 M⁻¹ s⁻¹ | – | – | – | – | – | – | – | –
7 | B6 | 0.00474 µM | 0.00545 s⁻¹ | 1.15e+06 M⁻¹ s⁻¹ | – | – | – | – | – | – | – | –
8 | B7 | 1.93 µM | 0.0898 s⁻¹ | 46500 M⁻¹ s⁻¹ | – | – | – | – | – | – | – | –
9 | B8 | – | – | – | 10.6 ng/mL | no binding | no binding | 19.5 ng/mL | 0.0215 µM | 0.00739 s⁻¹ | 343000 M⁻¹ s⁻¹ | EC50 (mouse 4-1BB-His protein [8]): 16.3 ng/mL
10 | B9 | 0.765 µM | 0.041 s⁻¹ | 53700 M⁻¹ s⁻¹ | – | – | – | – | – | – | – | –
11 | B10 | 3.07 µM | 0.0266 s⁻¹ | 8670 M⁻¹ s⁻¹ | – | – | – | – | – | – | – | –
12 | B11 | – | – | – | 2.51 ng/mL | no binding | no binding | 3.91 ng/mL | 0.0904 µM | 0.00352 s⁻¹ | 38900 M⁻¹ s⁻¹ | EC50 (mouse 4-1BB-His protein [8]): 402 ng/mL
13 | B12 | – | – | – | 2.06 ng/mL | no binding | no binding | 3.54 ng/mL | 0.021 µM | 0.00818 s⁻¹ | 390000 M⁻¹ s⁻¹ | EC50 (mouse 4-1BB-His protein [8]): 4.42 ng/mL; EC50 (read off the curve) [1]: 0.003 µM
14 | B13 | 2.56 µM | 0.0408 s⁻¹ | 15900 M⁻¹ s⁻¹ | – | – | – | – | – | – | – | –
15 | B14 | – | – | – | 5.2 ng/mL | no binding | no binding | 4.81 ng/mL | 0.000526 µM | 0.000546 s⁻¹ | 1.04e+06 M⁻¹ s⁻¹ | binding result (mouse 4-1BB-His protein [5]): no binding
